{
  "source": "patent US20230309566A1",
  "molecular_target": "Sf9 cells expressing receptor A or receptor B",
  "assay": "cell-based or functional assay",
  "note": "Ends that are not written are not given here.",
  "data": [
    {"binder": "QPPLPRY-NH2", "note": "[QPPLPRY-NH2 (SEQ ID NO: 3)]", "values": [
      {"measurement": "EC50 of calcium fluorescence (FLIPR Calcium 6) in Sf9 cells expressing receptor A or receptor B", "value": 1.4, "unit": "nM"}
    ]},
    {"binder": "QPPVPRY-NH2", "note": "[QPPVPRY-NH2 (SEQ ID NO: 4)]", "values": [
      {"measurement": "EC50 of calcium fluorescence (FLIPR Calcium 6) in Sf9 cells expressing receptor A or receptor B", "value": 12.7, "unit": "nM"}
    ]}
  ]
}
